# Results reported in patent US20150355179A1 (CENTRE NATIONAL DE LA RECHERCHE SCIENTIFIQUE CNRS, published 2015).
# Molecular target: monomeric CDK2 (GST-CDK2/CIV in the absence of cyclin A) (UniProt P24941 1-298)
# Test: real-time fluorescence assay with Cy3-labelled sensor
# Procedure: Fluorescence emission of Cy3 was measured at 590 nm following excitation at 544 nm on Polarstar™ fluorimeter.
# Fluorescence kinase assays were performed in 96-well plates in a thermostated chamber (Polarstar BMG) at 30° C. in 200 ul phosphate buffer saline, pH 7.2, 150 mM NaCl, in the presence of 5 mM MgCl2, 0.5 mM ATP, except when stated otherwise. […] Changes in Cy3 fluorescence emission were recorded at 590 nm following excitation at 544 nm. […] Data analysis and curve fitting were performed using the GraFit Software (Erathicus Ltd).
binder,measurement,value
"GST-CDKACTH1 labelled with Cy3 (CDKACTH1-Cy3) (other, Cy3-maleimide coupled to the unique cysteine of the substrate sequence (position -2 of the TP phosphorylation site), The GST tag was not removed; also called CDKACT-Cy3; CDKACT-H1 biosensor; not shown: N-terminal GST tag from the pGex6P1 vector, kept on the biosensor) GEVVDSHLSDMLQQLHSVNASKPSERGLVRQEEAEDPASIPIFWVSKWVDYSDKYGLGYQLSDNSVGVLFNDSTRLILYNDGDSLQYIERDGTESYLTVSSHPNSLMKKITLLKYFRNYMSEHLLKAGANITPREGDELARLPYLRTWFRTRSAIILHLSNGSVQINFFQDHTKLILSPLMAAVTYIDEKRDFRTYRLSLLEEYGSSKELASRLRYARTMVDKLLSSRSASNRLKASPGAGGTGGLPGGGGCSTPKKAKKL",binding result,no binding
